Test results as given in patent publication US6426070.

T1: placental ribonuclease inhibitor (RI), P13489
T1 chain: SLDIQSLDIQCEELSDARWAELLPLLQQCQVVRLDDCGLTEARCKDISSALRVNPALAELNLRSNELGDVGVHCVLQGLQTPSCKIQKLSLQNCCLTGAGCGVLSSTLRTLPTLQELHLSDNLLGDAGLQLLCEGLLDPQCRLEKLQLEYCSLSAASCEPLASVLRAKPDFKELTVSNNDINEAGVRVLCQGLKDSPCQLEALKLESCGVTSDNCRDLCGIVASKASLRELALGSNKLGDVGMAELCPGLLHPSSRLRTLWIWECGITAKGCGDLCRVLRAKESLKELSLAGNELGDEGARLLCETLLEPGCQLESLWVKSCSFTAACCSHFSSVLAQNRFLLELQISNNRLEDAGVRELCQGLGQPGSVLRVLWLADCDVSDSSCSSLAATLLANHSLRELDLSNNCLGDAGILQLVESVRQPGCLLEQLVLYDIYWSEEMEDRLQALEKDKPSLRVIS

B1: recombinant human eosinophil cationic protein (rhECP), baculovirus-derived, C-terminal FLAG (protein)
chain: RPPQFTRAQWFAIQHISLNPPRCTIAMRAINNYRWRCKNQNTFLRTTFANVVNVCGNQSIRCPHNRTLNNCHRSRFRVPLLHCDLINPGAQNISNCTYADRPGRRFYVVACDNRDPRDSPRYPVVPVHLDTTIDYKDDDDK

Experiments:
[1] = target: recombinant human eosinophil cationic protein (rhECP), baculovirus-derived, C-terminal FLAG (human) (UniProt P12724); test: cell-based or functional assay
[2] = target: T1, placental ribonuclease inhibitor (RI), …

| Molecule | infectious units/ml RSV-B after 500 nM rhECP + 400U RI (500 nM rhECP alone: 660 +/- 28) (infectious units/ml) [1] | ribonuclease activity (pmol/min) at fixed enzyme (rhECP) and substrate (tRNA) concentrations with increasing concentrations of RI [2] |
| --- | --- | --- |
| placental ribonuclease inhibitor (RI) (from UniProt P13489 2-461) | 1690 | – |
| B1 | – | These results demonstrate that rhECP is sensitive to the inhibitory effects of RI |
